What all share (test): fluorescence anisotropy
(In fluorescence polarisation assays a small probe gives low polarisation when free and higher when bound to something large.)

Assay [1] concerns the target T1, Src-optimal substrate peptide Rs1 (synthetic construct).
T1 chain: fluorescein-AEEEIYGEFAKKK

The target of assay [2] is T2, Src-optimal substrate peptide Rs1 (synthetic construct).
T2 chain: fluorescein-AEEEIYGEFAKKK

Assay [3] concerns the target T3, Src-optimal substrate peptide Rs1 (synthetic construct).
T3 chain: fluorescein-AEEEIYGEFAKKK

Ends that are not written are not given here. fluorescein = fluorescein label on the N-terminus of the peptide

Drawing on article PMC4300553 (2015), this text covers Kd for 1 molecule.

B1: Src kinase domain 251-533 (protein)
chain: QTQGLAKDAWEIPRESLRLEVKLGQGCFGEVWMGTWNGTTRVAIKTLKPGTMSPEAFLQEAQVMKKLRHEKLVQLYAVVSEEPIYIVTEYMSKGSLLDFLKGEMGKYLRLPQLVDMAAQIASGMAYVERMNYVHRDLRAANILVGENLVCKVADFGLARLIEDNEYTARQGAKFPIKWTAPEAALYGRFTIKSDVWSFGILLTELTTKGRVPYPGMVNREVLDQVERGYRMPCPPECPESLHDLMCQCWRKDPEERPTFEYLQAFLEDYFTSTEPQYQPGENL
By Kd is commonly meant the equilibrium constant for the complex coming apart. Turning to B1, the results for the Kd in assay [1], in assay [2] and in assay [3] were 37 µM, 17 µM and 16 µM, respectively.
